Measured values as given in US6919204B2, “Modulation of gene expression using localization domains” (Sangamo Biosciences, Inc., priority 2000, dated 2005).

Legend:
[1] = system: G5DE5tkLuc reporter in S2 cells; assay: Effect of Trichostatin-A on Gal4-tethered repression; type: cell-based, Drosophila; conditions: TSA 100 nM and 400 nM, 24 h before harvest
Experimental: (§1) Drosophila S2 cells were grown in Schneider's medium (Sigma) at 27° C. containing 10% FBS and penicillin/streptomycin. Cells were transfected using the Superfect reagent (Qiagen) following the manufacturer's directions. Transfection assays included 1.5 μg of either the pG5DE5tkLuc reporter or the p-37tkRLuc internal control, essentially as described in Chen et al. (1998) Mol Cell Biol 18:7259-7268. The Gal4 DNA binding domain constructs, pACTIN-SV-Gal4-Gro, pACTIN-SV-Gal4-MBD and pACTIN-SV-Gal4-MBDΔ were constructed by insertion of the Gal4 DBD into the HindIII/PstI sites of pACTIN-SV followed by insertion of Gro, dMBD-like and dMBD-likeΔ into the EcoRI site of the resulting plasmid. Quantities of individual Gal4 plasmids were varied as described in the figure legends. The total amount of plasmid was normalized to 4 μg by addition of pACTIN-SV vector (Huynh et al. (1999) J. Mol Biol 288:13-20) as carrier. Cells were harvested 12 h after transfection and luciferase assays were performed using an Enhanced Luciferase Assay Kit (Pharmingen) according to the manufacturer's instructions. Where indicated, transfected cells were treated with Trichostatin A (TSA, Wako) for 24 h before harvest. If dMBD-like represses transcription through recruitment of a Drosophila Mi-2 complex, transcriptional repression should be sensitive to inhibitors of histone deacetylases. Accordingly, the effect of Trichostatin-A, a histone deacetylase inhibitor, on dMBD-like-mediated repression was tested.

[2] = system: methylated (GAM12) and unmethylated (GAC12) DNA probes; assay: Southwestern assay with immobilized recombinant protein; type: binding
Experimental: (§2) Gel mobility shifts were performed in 10% polyacrylamide gels run in 0.5×TBE buffer (45 mM Tris, pH 8.0, 45 mM boric acid, 1 mM EDTA) using GAC12 or GAM12 double-stranded oligonucleotide probes, essentially as described in Wade et al. (1999) Nature Genet. 23:62-66. One picomole of radiolabelled probe was mixed with purified recombinant protein as indicated in the figure legends in 10 mM Tris HCl pH 8.0, 3 mM MgCl2, 50 mM NaCl, 0.1 mM EDTA, 0.1% NP-40, 2 mM DTT, 5% glycerol and 0.4 mg/ml BSA. The samples were incubated for 30 min at 37° C. 30 pmoles of competitor DNA (GAC12 or GAM12) were used per binding reaction. Gels were scanned on a Phosphormager (Molecular Dynamics). The procedure used for southwestern assays is as described in Wade et al. (1999), supra.
In Southwestern assays using immobilized protein, neither isoform interacted with the probes, regardless of methylation status (FIG. 1C). Thus, either the proteins fail to bind or they are unable to refold on the membrane surface.

[3] = system: methylated (GAM12) and unmethylated (GAC12) DNA probes; assay: Gel mobility-shift assay (solution binding); conditions: GAC12 or GAM12 probe; 50, 75, 150 ng protein
Experimental: as §2
Solution interactions with DNA were also examined using an electrophoretic mobility shift assay (FIG. 1D). […] No interaction was detected under these conditions, even non-specific aggregation.

[4] = system: G5DE5tkLuc reporter in S2 cells; assay: Cotransfection transcription assay, Gal4-tethered repression of luciferase reporter; type: cell-based, Drosophila; conditions: transfection into S2 cells; protein not tethered
Experimental: as §1, with “If dMBD-like represses transcription through recruitment of a Drosophila Mi-2 complex, transcriptional repression should be sensitive to inhibitors of histone deacetylases. Accordingly, the effect of Trichostatin-A, a histone deacetylase inhibitor, on dMBD-like-mediated repression was tested.” left out

Row | Molecule | relief of repression by Gal4-Gro [1] | relief of repression mediated by tethered dMBD-like [1] | relief of repression mediated by tethered dMBD-likeΔ [1] | binding of immobilized protein to DNA probes (Southwestern) [2] | binding to DNA in solution (electrophoretic mobility shift) [3] | transcriptional repression lacking the Gal4 DBD [4]
1 | CC(/C=C/C(=O)NO)=C\[C@@H](C)C(=O)c1ccc(N(C)C)cc1 [Trichostatin-A] | relieves repression | largely relieved | largely relieved | – | – | –
2 | dMBD-like: Drosophila methyl CpG binding domain protein homolog, product of the 1115 base mRNA (SEQ ID NO:14) (protein) MQMNPSVTIERKRVDCSVLPKGWQRDEVRKSGSSANNNASSNNNSSATASSNNNNNKVDVFYYSPTGKRAEGKPQDIAIPDFQPGKMPHCALPSPSISLYRCSAMPLPIASGGGNGATSGSAANALKRKFARSQGGNAAGAAGAAPPAATASSAATATAASASPSTANRQQQQIELSRALRTDVSLVPPIRQTASIFKQPVTVIRNHKQDPAKAKNEPKHGTREKPKQLFWEKRLERLRACHDSGEELDDISLPKTIRTVGPNVNEQTVLQSVATALHMLNAGVHGQSSTKADLTKNAMAFMNPEQPLMHAVIISEDDIRKQEDRVGVARRKLQDALKT | – | – | – | fails to bind methylated DNA | fails to bind methylated DNA in solution | failed to repress transcription
3 | dMBD-likeΔ: shorter Drosophila MBD-like isoform, product of the 842 base mRNA (SEQ ID NO:15) (protein) MQMNPSVTIERKRVDCSVLPKGWQRDEVRKSGSSANNNASSNNNSSATASSNNNNNKVDVFYYSRALRTDVSLVPPIRQTASIFKQPVTVIRNHKQDPAKAKNEPKHGTREKPKQLFWEKRLERLRACHDSGEELDDISLPKTIRTVGPNVNEQTVLQSVATALHMLNAGVHGQSSTKADLTKNAMAFMNPEQPLMHAVIISEDDIRKQEDRVGVARRKLQDALKT | – | – | – | – | – | failed to repress transcription
